The values below come from PMC3068998.

The conditions of the series: glycan lost.

B1: SV2A: N498Q (protein)
parent chain: MEEGFRDRAAFIRGAKDIAKEVKKHAAKKVVKGLDRVQDEYSRRSYSRFEEEEDDDDFPAPADGYYRGEGAQDEEEGGASSDATEGHDEDDEIYEGEYQGIPRAESGGKGERMADGAPLAGVRGGLSDGEGPPGGRGEAQRRKDREELAQQYETILRECGHGRFQWTLYFVLGLALMADGVEVFVVGFVLPSAEKDMCLSDSNKGMLGLIVYLGMMVGAFLWGGLADRLGRRQCLLISLSVNSVFAFFSSFVQGYGTFLFCRLLSGVGIGGSIPIVFSYFSEFLAQEKRGEHLSWLCMFWMIGGVYAAAMAWAIIPHYGWSFQMGSAYQFHSWRVFVLVCAFPSVFAIGALTTQPESPRFFLENGKHDEAWMVLKQVHDTNMRAKGHPERVFSVTHIKTIHQEDELIEIQSDTGTWYQRWGVRALSLGGQVWGNFLSCFSPEYRRITLMMMGVWFTMSFSYYGLTVWFPDMIRHLQAVDYAARTKVFPGERVEHVTFNFTLENQIHRGGQYFNDKFIGLRLKSVSFEDSLFEECYFEDVTSSNTFFRNCTFINTVFYNTDLFEYKFVNSRLVNSTFLHNKEGCPLDVTGTGEGAYMVYFVSFLGTLAVLPGNIVSALLMDKIGRLRMLAGSSVLSCVSCFFLSFGNSESAMIALLCLFGGVSIASWNALDVLTVELYPSDKRTTAFGFLNALCKLAAVLGISIFTSFVGITKAAPILFASAALALGSSLALKLPETRGQVLQ
As for B1, the “other: toxin entry into neurons” value is recorded as “no change”.

B2: SV2A: N548Q (protein)
parent chain: B1 parent chain
On to B2, for which the “other: toxin entry into neurons” value was “no change”.
